The values that follow come from PMC11425952, “Characterization of Mycobacterium smegmatis Glutaminase-Free Asparaginase (MSMEG_3173)” (ACS Omega, 2024).

This data set has as its system NC(=O)C[C@H](N)C(=O)O. The data set can be described thus: purified protein. It counts as biochemical, Mycolicibacterium smegmatis. As to conditions: 50 mM Tris-HCl pH 8.6, 37 °C (standard assay), 0.05-4.0 mM L-Asn.

What is called Km is the concentration of substrate that gives half-maximal velocity. In general, kcat refers to the maximal rate divided by the concentration of active sites. As to “MsA (Mycobacterium smegmatis L-asparaginase, MSMEG_3173) (Mycolicibacterium smegmatis MC2 155)”, the Michaelis-Menten constant (Km) worked out at 1403 ± 240 µM and the catalytic constant (kcat) was 708.1 ± 25.05 s⁻¹.
